The values that follow come from article PMC8546688, “Streptococcus suis MsmK: Novel Cell Division Protein Interacting with FtsZ and Maintaining Cell Shape” (mSphere, 2021).

The labels stand for the following.
B3: His-tagged FtsZ (filamentous temperature-sensitive protein Z) (natural protein, Streptococcus suis, UniProt A0A0H3MXZ7 1-409, looked up)
chain: MAFSFEAAASHGAVIKVIGVGGGGGNAINRMIEEGVAGVEFIAANTDVQALSSSKAETVIQLGPKLTRGLGAGGQPEVGRKAAEESEEALTNVLTGADMVFITAGMGGGSGTGAAPVIARIAKNLGALTVAVVTRPFGFEGNKRGNFAIEGIEGLREQVDTLLIISNNNLLEIVDKKTPLLEALSEADNVLRQGVQGITDLITNPGLINLDFADVKTVMENKGNALMGIGIGTGEDRVIEAARKAIYSPLLETTIDGAEDVIVNVTGGYDMTLTEAEDASEIVNQAAGQGVNIWLGTSIDETMKDEIRVTVVATGVRQDTADKPARHRTEAVSPRPSHRFDHSVASAPTRGAAQQTEAPKASAFGEWDLRRENLIRPTDTEPTSTVSVEKFTMDQDEDELDTPPFFRNR
notes: FtsZ, tubulin-like cell division protein of Streptococcus suis; The His tag is named for the SPR; also called His-FtsZ; source: purified

The target of data set [1] is B3. Nature of the data set: SPR; His-tagged FtsZ immobilized onto sensor chips as the ligand; MsmK constructs in concentration series as analytes; buffer without protein as negative control. The conditions noted are these: both partners purified.
Data set [2] concerns the molecule itself. Briefly: transmission electron microscopy; FtsZ (0.6 μM) incubated with 2 mM GTP and/or 1 mM ATP in buffer P, 10 min at 37°C.

B1: N_MsmK (amino acids 1 to 234), His-tagged (domain or fragment, Streptococcus suis, UniProt A0A0H3N1P0 1-234, looked up)
chain: MVQLNLKNIYKKYPNSEHYSVEDFNLDIKDKEFIVFVGPSGCGKSTTLRMIAGLEDITEGEAYIDGVLMNDVAPKDRDIAMVFQNYALYPHMTVFDNMAFGLKLRKYSKDEIKKRVEEAAQILGLTEFLERKPADLSGGQRQRVAMGRAIVRDAKVFLMDEPLSNLDAKLRVSMRTEIAKIHRRIGATTIYVTHDQTEAMTLADRIVIMSATKNPAGTGTIGRIEQIGSPEELY
notes: MsmK of Streptococcus suis, N-terminal domain, aa 1 to 234 of 378; also called N terminus of MsmK; N-terminal domain of MsmK; source: expressed and purified
For the molecule B1, in data set [1], the Kd stood at 332 nM, the koff came out at 0.000332 s⁻¹ and the kon was determined as 1000 M⁻¹ s⁻¹.

B2: His-tagged MsmK (multiple sugar metabolism protein K), full length (enzyme, Streptococcus suis, UniProt A0A0H3N1P0 1-376, looked up)
chain: MVQLNLKNIYKKYPNSEHYSVEDFNLDIKDKEFIVFVGPSGCGKSTTLRMIAGLEDITEGEAYIDGVLMNDVAPKDRDIAMVFQNYALYPHMTVFDNMAFGLKLRKYSKDEIKKRVEEAAQILGLTEFLERKPADLSGGQRQRVAMGRAIVRDAKVFLMDEPLSNLDAKLRVSMRTEIAKIHRRIGATTIYVTHDQTEAMTLADRIVIMSATKNPAGTGTIGRIEQIGSPEELYNRPVNKFVASFIGSPAMNFFTVTLQDGVLVGDGFKVELPEGRRKHLEEKGYNGKSFTLGIRPEDIKASQLELDTYPSSIVEAEVVVSELLGAETMLYSKVGSTEFVSRVDARDYHNPGDKVRLTFNLNKAHFFDDETSKAIV
notes: MsmK, ATPase of the ABC-type carbohydrate transport system of Streptococcus suis; 378 amino acid residues, open reading frame of 1,137 bp; also called full-length MsmK; source: expressed and purified
In data set [1], B2 returned a Kd not above 10 nM, a koff not above 1e-05 s⁻¹ and a kon of 1000 M⁻¹ s⁻¹.
With B3, the binding result in data set [2] was “binds”.

The term Kd denotes the equilibrium constant for the complex coming apart. Read a high Kd as weaker binding. What is called koff is the rate constant with which the complex falls apart. A low value points to a long-lived complex. Broadly, the kon is the rate constant with which the complex forms. A low value points to slower complex formation.
